The nanobody polyreactivity screen of Harvey et al. (2022)

Test: yeast display, Sf9 membrane polyspecificity reagent, FACS + sequencing; frameworks hold sequencing errors
Outline: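 Galactose-induced (36–48 hours) yeast carrying a synthetic nanobody display library were exposed to 10% biotinylated, detergent-solubilized Sf9 membrane reagent at 4 °C for 1 hour. FACS followed streptavidin microbead enrichment, using low and high (top ~1%) gates for expression (anti-HA) and reagent binding (streptavidin). Colony PCR, MiSeq 2 × 250 sequencing and CDR-length filtering followed. Labels for polyreactivity reflect the gate of origin.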

QVQLVESGGGLVQAGGSLRLSCAASGFIFDVNAMGWYRQAPGKERELVAAISRSGSSTYYADSVKGRFTISRDNAKNTVYFQMNSLKPEDTAVYYCAAEYYRNFYCSRGYWGQGTQVTVSS
polyreactivity (PSR sort gate): high polyreactivity

QDQLVESGGGLVQAGGSLRLSCAASGIIVTYYAMGWYRQAPGKERELVAAISESGGITYYADSVKGRFTISRDNAKNTVYLQMISLKPEVTGVYYCNAEYWGYAWPYDYWGQGTQVTVSS
polyreactivity (PSR sort gate): high polyreactivity

QDQLVESGGGLVQAGGSLRLSCAASGFIFGRYAMGWYRQAPGKERELVATISRCGGSTYYADSVKGRFTISRDNAKKTVYLQMNSLKPEDTAVYYCAATYYQLFGTILHGYWGQGTQVTVSS
polyreactivity (PSR sort gate): low polyreactivity

QVQLVESGGGLVQAGGSLRLICAASGRTFPYNAMGWYRQAPGKEREFVAVISKGGGRTYYADSVKGRFTISRDNAKNTVYLQMNSLKPEDTAVYYCAKRIGLTFWGQGTQVTVSS
polyreactivity (PSR sort gate): high polyreactivity

QVQLVESGGGLVQAGGSLRLSCAASGRNFSFYAMGWYRQAPGQERELVAAITYTDGSTYADSVKGRFTISRDNAKNTVYLQMNSLKPDDTAVYYFATRYRWTPYDYWGQGTQVTVSS
polyreactivity (PSR sort gate): low polyreactivity

QVQLVESGGGLVQAGGSLRLSCAASGFIFRRYAMGWYRQAPGKERELVAAITAGGGNTYYADSVKGRFTISRDNAKNTVYLQMHSLKPEDTAVYYCAAAGRWYYHGYNYWGQGTQVTVSS
polyreactivity (PSR sort gate): high polyreactivity

QVQLVESGAGLVQARASHRLSCAASGSTLYAYAIGCSRQEPGKEREMVAAISGTGGSTYYADSVKGRFTISRDNAKNTVYLQMNTLKPEDTADYYCAAYYNYFGQRYYYWGQGTQVTVSS
polyreactivity (PSR sort gate): high polyreactivity

QVQLVESRGGLVQAGGSLRLSCAASGITFRTYSMGWYRQAPGKERELVAGIRTRTGSTYYADSVKGRFTISRDNAKNTVYLQMNSLKPEDTAVYYCAAKGSGYYGRQRIYSYTYDYWGQGTQVTVSS
polyreactivity (PSR sort gate): high polyreactivity

QVQLVESGGGLVQAGGSLRLTCAASGSTFRHNAMGWYRQAPGKETELVAVITDGASTNYADSVKGRFTMSRDNAKNTVYLQLNSLKPEDTAVYYCAAYHRGYYTGREYYYWGQGTQVTVSS
polyreactivity (PSR sort gate): low polyreactivity

QVQLVESGGGLDQAGGSLRLSCAASGSIFSYYAMGWYRQAPGKERELVAAITIRGGRTYYADSVKGRFTISRDNAKNTVYLQMNSLKPEDTAVYYCAADWLNSDPYNYWGQGTQVTVSS
polyreactivity (PSR sort gate): low polyreactivity

QVQLVESGGGLVQAGGSLRLSCAASGSIFGYYAMGWYRQAPGKERELVAAIRTTGGRTYYADSVKGRFTISRDNAKNTVYLQMNSLKPEDTAVYYCNALQAGVSYDYWGQGTQVTVSS
polyreactivity (PSR sort gate): high polyreactivity

QVQLVESGGGLVQAGGSLRLSCAASGSTLLGYTMGWYRQAPGKERELVAVISWSGGGTYYADSVKGRFTISRDNAKNTVYLQMNSLKPEDTAVYYCAAETVLGYWYYRKYYYWGQGTQVTVSS
polyreactivity (PSR sort gate): high polyreactivity

QVQLVESGGGLVQAGGILRLSCAASGSTTYYYAMGWYRQQPGKDRELVATISTTGAGTYYADSVKGRFTISRDNAKNTVYLQMNSLKPEDTAVYYCAKDGKASRDDAEYDYWGQGTQVTVSS
polyreactivity (PSR sort gate): low polyreactivity

QVQLVESGGGLVQAGGSLRLSCAASGRTFESNAMGWYRQAPGKERELVAGITSGGITNYADSVKGRFTISRDNAKNTVYLQMISLKPEDTAVYYCEFYYWGQGTQVTVSS
polyreactivity (PSR sort gate): low polyreactivity

QVQLVESGGGLVQAGGSLRLSCAASGRTFYAYAMGLYRQAPGKERELVASIRWSSGSTNYADSVKRRFTISRDYAKITVYLQMNILKAEDTAVYYCAARYYYYGGHRLYWGQGTQLTVSS
polyreactivity (PSR sort gate): high polyreactivity

QVQLVESGGGLVQAGGSLRLSCAASGSSFRRYAMGWSRQAPGKERELVASITASGGSTYYADSVKGRFTISRDNAKNTVYLQMNSLKAEDTAVYYCNKDTIKSYYRRYDSWGQGTQVTVSS
polyreactivity (PSR sort gate): low polyreactivity

QVQLVESGGGLVQAGGSLRLSCAASGRIFQFNVMGWYRQAPGKERELVAAISRGGGITDYADSVKGRFTISRDNAKNTVYLQMNSLKPEDTAVYYCAAVLPARGYYWGQGTQVTVSS
polyreactivity (PSR sort gate): high polyreactivity

QVQLVESGGGLVQAGGSLRLSCAPSGSTFPQYAMGWYRQAPGKERELVADISSGVSTNYADSVKGRFTISRDNAKNTVYLLMNSLKPEDTAVYYCAAQAYVEGVYRYDYWGQGTQVTVSS
polyreactivity (PSR sort gate): low polyreactivity

QVQLVESGGGLVQEGGSLRLSCADSGSISYQNAMGWYRQAPGKERELVAAISGDGDSTYYADSVKGRFTISRDNAKNTVYLQMNSLNPEDTGVYYCAAEPNVYFSVFVLFPSDYWGQGTQVTVSS
polyreactivity (PSR sort gate): low polyreactivity

QVQIVESGGGLVQAGGSLRLSCAASGIIFYYYAMGWYRPAPGKERELVAGISYSGGSTYADSVKGLFTISRDNAKNTVYLQMNSLKPEDTAVYDCAADYDYGGHWYDYWGQGTQVTVSS
polyreactivity (PSR sort gate): low polyreactivity

QVQLVDSGGGLVQAGGSLRLSCAASGFNFDQYGLGWYRQAPGKERELVASITSTGSTYYADSVKGRFTISRDNAKNTVYLQMNSLKPEDTAVYYCATDSYDGMDYWGQGTQVTVSS
polyreactivity (PSR sort gate): low polyreactivity

QDQLVESGGGLVQAGGSLRFSCASSGRIFRSYGMGWYRQAPGKERELVARIRNRGGSTYAHSVKGRFTISRDNAKNSVYLQMNSLKPEDTAVYYCAAGAYRHSVFSYDYWGQGTQVTVSS
polyreactivity (PSR sort gate): high polyreactivity

QVQLVESGGGLVQAGGSLRLICAASGSIFGINAMGWYRQAPGKERELVAAITWSGTSTYYADSVKGRFTISRDNAKNTDYLQMNSMKPEDTAVYYCAARVGRGYRTYGYWGQGTQVTVSS
polyreactivity (PSR sort gate): high polyreactivity

QVQLVESGGGLVQAGGSLRLSCAASGSTFATNTLGWYRQAPGKERELVAAISRGTSTKYADSVKGRFTISRDNAKNTVYLQMTCLKPEDTAVSYCNAVSRDKSLYDYWGQGTQVTVSS
polyreactivity (PSR sort gate): high polyreactivity

QLQLVESGGGLGQAGGRLRLSCAASGSTFGRYAKGCYIQAPGKERELVAAITSDTGNTNFADSVKGRLTISRDNAKNTVYLQMNSLKPEDTAVYYCAAATFWVLWGDVIGNYDSWGQGTQVTVSS
polyreactivity (PSR sort gate): low polyreactivity

QVQLVESGGGLVQAGGSLRLSCAASGFIFWLYALGWYRKAPGKERELVASINWSGGDTYYADSVKGRFTISRDNPKNTVYLQLNSLKPEDTAVYYCNAQVYRYRIGYDYWGQGPQVTVSS
polyreactivity (PSR sort gate): low polyreactivity

QVQLVESGGGLVQAGGSLRLSCAASGFIFFVNAMGWYRQAPGKEREFVATITGSGGSTYYADSVKGRFTISRDNAKNTVYLQMNSLKPEDTAVYYCAALGPYLDYGVQYGYWGQGTQVTVSS
polyreactivity (PSR sort gate): low polyreactivity

QVQLVESGGGLVQAGGSLRLSCAASGFTFKWYTMGWYRQAPGKERELVAGISRRGGSTYYADSVKGRFTISRDNAKNTVYLQMNSLKPEDTAVYYCAARYTWRRAGYYYWGQGTQVTVSS
polyreactivity (PSR sort gate): high polyreactivity

QVQLVESGGGLVQAGGSLRLSCAASGSIFGYYAMGWSRQAPGKEREVVAAISASGGSTYYADSVKGRFTISRDTAKNTVYLQMNSLKPEDTAVYYCAAVRSVTYIWARYPYGLEYWGQGTQVTVSS
polyreactivity (PSR sort gate): high polyreactivity

QEQLQESGGGLVLAGGSLSLSCPESGYISWSFTMGWYRKAPGKEREFVAGITYGGITYYADSVKGRFTIRRDNGKNTVYLQLNSLKPEDTAVFYCAAPQTYPYVYVYWGQGTQVTVCS
polyreactivity (PSR sort gate): high polyreactivity

QVQLVESGGGLVQAGGSLRLSCAASGIIFFLYAMGWYRPAPGKERELVAAISSGGSTYYADSVKGRFTISRDNAKNTVYLQMNSLKPEDTAVYYCNARYWPFRYYYWGQGTQVTVSS
polyreactivity (PSR sort gate): high polyreactivity

QVQLVESGGGLVQAGGSLRLSSAASGSTSYYYVMGWYRQAPGKERELVAAISNGDTTNYADSVKGRITITRDNEKNTVYLQMNSLKPEVTAVDYCAAVYYRSFHDYGYWGQGTQVTVSS
polyreactivity (PSR sort gate): low polyreactivity

QVQLVESGGGLVQAGGSLRLSCAASGFIFYSYAMGWYRQAPGKEREFVASISGRTGSTYYADSVKGRFTISRDNAKNTVYLQMNSLKPEDTAVYYCNARIVHSFRYDYWGQGTQVTVSS
polyreactivity (PSR sort gate): low polyreactivity

QVQLVESGGGLVQAGGSLRLSCAASGSIFVGYGALGWYRQAHGKERELVAAITSGTSTYYADSVKGRFTISRDNAKNTVYLQINSLKPEDTAVYYCAARGFLKYVTEFDYWGQGTQVTVSS
polyreactivity (PSR sort gate): low polyreactivity

QVQLVESGGGLVQAGGSLRLSCAASGITFYPNDMGWYRQAPGKERELVAAITTNDGDTYYADSVKGRFTISRDNAKNTVYVQMNSLKPEDTAVYYCATGIDKGPVWVTYSTDYDYWGQGTQVTVSS
polyreactivity (PSR sort gate): low polyreactivity

QVQLVESGGGLVQAGGSLRLSCAASGSIFAGNAMGWYRQSPGKERELVAAITWRSGRTYYADSVKGRFTISRDNAKNTVYLEMNSLKPEDTAVYYCARGRYGYTAPFRRWYFRYDYWGQGTQVTVSS
polyreactivity (PSR sort gate): high polyreactivity

QDQLVESGGGLVQAGGSLRLSCAASGLTFQYNAMGWYRQAPRKERELVATISQSGGSTYYADSVKGRFTISRDNAKNTVYLQMNSLKREDTAVYYCAAYRAWTWRIRYDYWGQGTQVTVSS
polyreactivity (PSR sort gate): low polyreactivity

QVQLVESGGGLVQAAGSLRLSCAAYGGIFYWYAMGWYRQAPGKVRELVAVITLSGGSTDYADSVKGRFTISRDNAKNTVSLQMNSLKPEDTAFYYCAAEAYSYYPGTYEDDYWGQGTQVTVSS
polyreactivity (PSR sort gate): low polyreactivity

QVQLVESGGGLVQAGGSLRLSCAASGIIFTRYVMGWYRQAPGKERELVATIRIGGSTTYADSVKGRFTISRDNAKNTVYLQMNSLKPEDTAVYYCAADTWYITTYGGAGSYAYGFYYWGQGTQVTVSS
polyreactivity (PSR sort gate): low polyreactivity

QVQLVESVGGLVQAGGSLRLSSAASGFTFTHYAMGWYRQAPGKERELVAAISTSGGSTYYADSVKGRFTISRDNAKNTVYLQMNSLKPEDTAVYYCAARRDGWVQWGYYYWGQGTQVTVSS
polyreactivity (PSR sort gate): low polyreactivity

QVQLVESGGGLVQAGGSLRLSCAASGFTLADNTMGWYRQAPGKERQLVATISSDGNTNYADSVKGRFTISRDNAKNTVYLQMNSLKPEDTAVYYCNAEGVFGDVRSGFYWYDYWGQGTQVTVSS
polyreactivity (PSR sort gate): low polyreactivity

QVQLVESGGGLVQAGGSLSLSCAASGSIFAGNAMGWYRQAPGKERELVAAIRWSTGSTYYADSVKGRFTISRDNAKNTVYLQMNSQKPEDTAVYYCAATDTTFYGIVRYEFWGQGTQVTVSS
polyreactivity (PSR sort gate): low polyreactivity

QVQHVESGGGLVQAGGSLRLSCAASGFIFWYYTMGWYRQAPGKVRELLATISGGGSTYYADSVKGRFTISRDNAKNTVYLQMNSLKPEDTAVYYCNAVIRTRRVGYGDGVDYWGQGTQVTVSS
polyreactivity (PSR sort gate): high polyreactivity
